Experimental data as given in patent US20150031755.

What was measured:
[1] = target: T1, human alpha-CGRP (L-peptide) (Homo sapiens) (UniProt P06881); assay: SPR; conditions: L-RNA; 37 C
T1 sequence: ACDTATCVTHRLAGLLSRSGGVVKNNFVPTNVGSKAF

[2] = system: T2, rat amylin (L-peptide) (Rattus norvegicus); assay: cell_activity; conditions: L-RNA, L-dC at 41, 5'-40 kDa PEG; cAMP inhibition, MCF-7 cells; p375 prints human amylin for this value but p377 indicates rat amylin
T2 sequence: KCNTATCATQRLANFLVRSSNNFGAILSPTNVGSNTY

| Sequence | Kd [1] | IC50 [2] |
| --- | --- | --- |
| CCGUGCUGUCGGAGACUACUCGUCGAGUAGAAAUAGGUCCCCUCCCACGG [226-F2-001 (L)] | 2.62 nM | – |
| CCGUGCUGUCGGAGACUACUCGUCGAGUAGAAAUAGGUCCCCUCCCACGG [NOX-L41 (226-F2-001-D41-5'-40kDa-PEG)] | – | 283 nM |
| CGUGCUGUCGGAGACUACUCGUCGAGUAGAAAUAGGUCCCCUCCCACG [212-G1-001 (L)] | 5.12 nM | – |
